± gives the half width of the 95% confidence interval.
How the values were obtained:
[1] = folding stability dG unfold from chymotrypsin proteolysis; higher = more stable
In short: (§1)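 How resistant each design was to proteolysis was captured as K50, inferred by Bayesian fitting of sequencing counts. Unfolding free energy was then derived relative to a sequence-predicted unfolded-state K50 and a shared folded-state K50, per protease or combined. Digestion used trypsin and chymotrypsin at 11 threefold-diluted concentrations plus a no-protease condition, on mini-proteins under 80 residues without cysteine in a PA-tagged cDNA display construct. Designs were kept only when AlphaFold2 dimer inter-PAE was above 15.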

[2] = folding stability dG unfold (combined trypsin and chymotrypsin); higher = more stable
In short: as §1

[3] = folding stability dG unfold from trypsin proteolysis; higher = more stable
In short: as §1

| Sequence | folding stability dG unfold [1] [kcal/mol] | folding stability dG unfold [2] [kcal/mol] | folding stability dG unfold [3] [kcal/mol] |
| --- | --- | --- | --- |
| SAGGSAGGSKNDWGEFDAEVPFFKEKKKVKIYKNPDNPNIYYIEFPKTGKIFKVYPNGEIKEESAGGSAGGS [r12_580_TrMRF] | 1.75 ± 0.17 | 1.49 ± 0.16 | 1.01 ± 0.062 |
| SAGGSAGGSKPKRRRVQIELPLPPGKPITPDHIREFMRPFGAPKVEITNIHPTNGRWIITFELSAGGSAGGS [r20_79_TrROS] | 2.6 ± 0.11 | 2.42 ± 0.14 | 1.98 ± 0.031 |
| SAGGSAGGSKPLVIRVRLTYYDEKTGKKVKEVELTLTVSEEEAKKLAEELKKLYPNVEVEIFPSAGGSAGGS [r12_342_TrROS_Hall] | 4.67 ± 0.13 | 4.84 ± 0.39 | 4.37 ± 0.53 |
| SAGGSAGGSKPPPTVEIEITLEDGTVLRIRVTPDRIEIENLETGKRFTFPPGATIEIEVRKLPSAGGSAGGS [r12_227_TrROS_Hall] | 3.73 ± 0.49 | 4.19 ± 0.56 | 3.95 ± 0.82 |
| SAGGSAGGSKPPVKTIPRWIPFPPGQTPNELVDELRKLFPPGMEVDVEYDPEPGYVRVSITFRSAGGSAGGS [r12_12_TrROS] | 1.86 ± 0.047 | 2.06 ± 0.097 | 2.19 ± 0.042 |
| SAGGSAGGSKPRLVLEIKIKAESEEEAREEVEKALQEKFGLKIKSVEIEREEDYITVRVEIEPSAGGSAGGS [r12_265_TrROS_Hall] | 2 ± 0.061 | 1.92 ± 0.23 | 2.26 ± 0.081 |
| SAGGSAGGSKQILKKLGLPPGKEVQIMMTPNDMNELRDLPGIKSIKMEPRPDGYYQHSIRIDNSAGGSAGGS [r12_750_TrROS] | -0.386 ± 0.33 | -0.583 ± 0.49 | -1.31 ± 0.59 |
| SAGGSAGGSKTLKIEIPVEEESEEEARKKIKEALKELGIKEITEEDIKIERKEDGTLRAEIKLSAGGSAGGS [r12_122_TrROS_Hall] | 0.343 ± 0.11 | 0.817 ± 0.17 | 0.987 ± 0.084 |
| SAGGSAGGSKTLVIEEDGELYKVRITNKNGKEIEIVMSADEIKKLPPNAKVEVEKIKLPEKKPSAGGSAGGS [r12_419_TrROS_Hall] | 1.52 ± 0.067 | 1.36 ± 0.062 | 1.18 ± 0.028 |
| SAGGSAGGSKVDIVKVEVYEVESPLGGRYYLVKVYRKDGRPILVLASPSTTPEEVLKKAEEAESAGGSAGGS [r12_1047_TrMRF] | 2.78 ± 0.053 | 2.48 ± 0.12 | 1.96 ± 0.049 |
| SAGGSAGGSKVIPITFPKSLSLEQIEDFVRKIAAESGAKVKSVKIVDVDPENNRVTVLVEVEGSAGGSAGGS [r12_168_TrMRF] | 3.34 ± 0.038 | 3.31 ± 0.079 | 3.14 ± 0.042 |
| SAGGSAGGSKWIKIMYMIPPGDPEEIIEKLLPPGYKIEEVEVQRMPGYFMVDITIRDEDPDAISAGGSAGGS [r12_445_TrROS] | 2.37 ± 0.16 | 2.37 ± 0.21 | 2.46 ± 0.11 |
| SAGGSAGGSLIPADRTYKVTVTVEGDKVILTLTDPTSSVTYTLTLDIGPEKVPAGSTLTYTGSSAGGSAGGS [r12_525_JUSTAS] | 1.7 ± 0.19 | 1.56 ± 0.25 | 1.22 ± 0.075 |
| SAGGSAGGSLVIPLPNGGRIEVLEVGEDYVLVRLVDPMPGTNKPRVSEIRLKLPPLKPPPPDKSAGGSAGGS [r12_959_TrMRF] | 2.14 ± 0.032 | 2.28 ± 0.11 | 2.36 ± 0.073 |
| SAGGSAGGSMALPPDLEVRITERTVSPDGSTTTYTVERPDGTTVTLTSEAELAALRESGVVLESAGGSAGGS [r12_455_JUSTAS] | -0.137 ± 0.15 | 0.145 ± 0.089 | 0.227 ± 0.086 |
| SAGGSAGGSMDGTVRQPPGGVWEVRARPPAVTPVLVTVVLVTVDADGNLILNPVAGYTHPDELSAGGSAGGS [r12_1027_TrMRF] | 1.11 ± 0.074 | 0.848 ± 0.077 | 0.359 ± 0.032 |
| SAGGSAGGSMEENKPVVTLTTVEIYIESEVDPSLGKPLNPKKITVTLTTTVPPDGSTSTSTLFSAGGSAGGS [r12_438_JUSTAS] | 1.67 ± 0.17 | 1.45 ± 0.19 | 1.11 ± 0.17 |
| SAGGSAGGSMEEVEVFELEDGTLLVLVRVDGKEELIEIPLDDLKKLPNVKEVKIFPVKKVEKPSAGGSAGGS [r12_343_TrROS_Hall] | 1.43 ± 0.057 | 1.21 ± 0.086 | 0.803 ± 0.052 |

| Sequence | folding stability dG unfold [1] [kcal/mol] | folding stability dG unfold [2] [kcal/mol] | folding stability dG unfold [3] [kcal/mol] |
| --- | --- | --- | --- |
| SAGGSAGGSMEFVEIEIEKELETEVSPDGTTTTRYRVPDGSILVVTTTHPPDGVPTPTVTLVASAGGSAGGS [r20_240_JUSTAS] | 0.944 ± 0.075 | 1.08 ± 0.045 | 1.16 ± 0.021 |
| SAGGSAGGSMEIIGSFTFPNPNGMNIKVNVYRNPEEKKWWAKVEIWDGGKPKTHTMPLDDFLKSAGGSAGGS [r12_1063_TrROS] | 2.06 ± 0.088 | 1.73 ± 0.1 | 1.23 ± 0.042 |
| SAGGSAGGSMEIIPPEELLARLSPEELVLVRLPTAPRLLPREELRLLPRDIPVEVEVIPRLPPSAGGSAGGS [r12_501_TrMRF] | 2.24 ± 0.1 | 1.5 ± 0.46 | 0.496 ± 0.23 |
| SAGGSAGGSMEIPANIPIEEFAALIKKKGNFEVKKVGPKTFVIVSKDNKKPLVVKFDAKPGLDSAGGSAGGS [r20_236_TrMRF] | 0.261 ± 0.15 | 0.183 ± 0.076 | -0.035 ± 0.064 |
| SAGGSAGGSMEIVVPVKNPEELKAVAEELEKKGYKVEKLPDGSLKVEKPGSVIYIKGDPVPPLSAGGSAGGS [r12_204_JUSTAS] | 1.49 ± 0.06 | 1.45 ± 0.14 | 1.52 ± 0.074 |
| SAGGSAGGSMEPIDLSIVEIKEELLPSGKKKYIVTIETPGKKVKKYTFPPDISIEDIKKLILNSAGGSAGGS [r20_115_JUSTAS] | 2.881 ± 0.026 | 2.69 ± 0.12 | 2.17 ± 0.11 |
| SAGGSAGGSMGLNVTYTVNVTHPDGTVETFPFEFDGTPEEAEEFARAIAEAHPDVKVTVTPGASAGGSAGGS [r12_268_TrMRF] | 3.06 ± 0.037 | 3.05 ± 0.076 | 3.06 ± 0.12 |
| SAGGSAGGSMGLVVRREDGTLVLFRLGEDGLEEFTVPLEDWLTVPEEFFDAIPPEEVDEATPESAGGSAGGS [r12_793_TrMRF] | 1.9 ± 0.092 | 1.69 ± 0.12 | 1.4 ± 0.15 |
| SAGGSAGGSMGYLTEPDISVTRTPDGTVTVTTTNTTYDPSTGKKLSTTTTTTTVTLAPDEELLSAGGSAGGS [r12_1038_JUSTAS] | 0.628 ± 0.052 | 0.735 ± 0.11 | 0.603 ± 0.056 |
| SAGGSAGGSMIGTADGTPVPFEVTHAEVYEVTLPNGEKYYLIKAYDPSTGKYFVALIPAKDIASAGGSAGGS [r12_823_TrMRF] | 2.84 ± 0.052 | 2.8 ± 0.1 | 2.77 ± 0.11 |
| SAGGSAGGSMIVETEVEEGDGSAVTKTFYPDSVTTTVNTPDEVTVEKTFPDGTVETTTVPLSPSAGGSAGGS [r12_507_JUSTAS] | 0.967 ± 0.031 | 0.896 ± 0.086 | 0.607 ± 0.028 |
| SAGGSAGGSMKIKIEVDKETGYIVIEAEPGETIEIEIGGKKIKMEVIENEDGSLYFVFKIEKPSAGGSAGGS [r12_970_TrROS_Hall] | 4.06 ± 0.085 | 3.6 ± 0.24 | 2.23 ± 0.12 |
| SAGGSAGGSMKIKPGQVVKIKVEKDGKIYEFEAKIDPKTGKLVEIKSAEELKGLKIKEIEIVPSAGGSAGGS [r12_6_TrROS_Hall] | 2.274 ± 0.016 | 1.99 ± 0.062 | 1.14 ± 0.027 |
| SAGGSAGGSMKIRIERTPDKLTIMIPPDNPDKIKNIIDNFGYPITDVKVTQNPPGMHMIEIPLSAGGSAGGS [r12_493_TrROS] | 1.47 ± 0.082 | 1.51 ± 0.19 | 1.58 ± 0.095 |
| SAGGSAGGSMKIVIVVDEDGSVRVRIEETGEEITFPKGMTAEEIAELLKKKFPNLEVEIVEVPSAGGSAGGS [r12_423_TrROS_Hall] | 3.09 ± 0.12 | 3.76 ± 0.24 | 4.28 ± 0.19 |
| SAGGSAGGSMKKITLTLTFPNGTTETLDITPLLEKSGLSPEEAIQLLKEELPENVTYKVTTEGSAGGSAGGS [r12_399_JUSTAS] | 3.152 ± 0.03 | 3.01 ± 0.084 | 2.69 ± 0.083 |
| SAGGSAGGSMKPGEKVKVEIVSYDEKTKELTIKITYGPKKTKTITIKPKTKEEALEQLKKLLKSAGGSAGGS [r20_167_TrROS_Hall] | 3.14 ± 0.051 | 2.6 ± 0.27 | 1.93 ± 0.17 |
